Test results as given in article PMC7671560, “SAXS studies of X-ray induced disulfide bond damage: Engineering high-resolution insight from a low-resolution technique” (PLoS ONE, 2020).

Target: the molecule itself
Assay: SEC; Superdex 200 10/300 in 20 mM Tris-HCl pH 7.5, 50 mM NaCl, 5 mM EDTA; 100 uL at about 5 mg/ml injected; elution times compared to a standard curve; monomer to disulfide-linked dimer

B1: endoHCYS (FRAGCYS-endoH-His6; Endoglycosidase-H with a 7 aa cysteine-containing fragment on its N-terminus) (enzyme)
chain: SLSTGCYVKQGPTSVAYVEVNNNSMLNVGKYTLADGGGNAFDVAVIFAANINYDTGTKTAYLHFNENVQRVLDNAVTQIRPLQQQGIKVLLSVLGNHQGAGFANFPSQQAASAFAKQLSDAVAKYGLDGVDFDDEYAEYGNNGTAQPNDSSFVHLVTALRANMPDKIISLYNIGPAASRLSYGGVDVSDKFDYAWNPYYGTWQVPGIALPKAQLSPAAVEIGRTSRSTVADLARRTVDEGYGVYLTYNLDGGDRTADVSAFTRELYGSEAVRTP
notes: 7 aa fragment with a single free cysteine ('FRAGCYS') attached to the flexible N-terminus of endoH; Endoglycosidase-H (endoH), P04067, aa 47-313; has no native cysteines; The chain is written once as the protomer; two protomers join through an intermolecular disulfide between the cysteines of FRAGCYS (about 75% dimer, 25% monomer in the preparation); The structure's own numbering has Val-8 as the …
B1 was tested, and the “stoichiometry N” value was 2.
